Assay results reported in patent publication US20080166364A1 (COVX TECHNOLOGY IRELAND, published 2008).
Non-standard residues stand in square brackets, D forms with d. No end group written: not given here. Phe(4-NO2) = N[C@@H](Cc1ccc([N+](=O)[O-])cc1)C(=O)O; Phe(4-COOH) = N[C@@H](Cc1ccc(C(=O)O)cc1)C(=O)O; Bpa = N[C@@H](Cc1ccc(C(=O)c2ccccc2)cc1)C(=O)O; Hyp = O=C(O)[C@@H]1C[C@@H](O)CN1; 0P linker = not defined here; acyl = not defined here; ThA = thiazolylalanine

T1: human angiopoietin-2 protein (human, UniProt O15123 19-496)
T1 construct: bought; also called Ang-2; Ang2
T1 sequence (looked up): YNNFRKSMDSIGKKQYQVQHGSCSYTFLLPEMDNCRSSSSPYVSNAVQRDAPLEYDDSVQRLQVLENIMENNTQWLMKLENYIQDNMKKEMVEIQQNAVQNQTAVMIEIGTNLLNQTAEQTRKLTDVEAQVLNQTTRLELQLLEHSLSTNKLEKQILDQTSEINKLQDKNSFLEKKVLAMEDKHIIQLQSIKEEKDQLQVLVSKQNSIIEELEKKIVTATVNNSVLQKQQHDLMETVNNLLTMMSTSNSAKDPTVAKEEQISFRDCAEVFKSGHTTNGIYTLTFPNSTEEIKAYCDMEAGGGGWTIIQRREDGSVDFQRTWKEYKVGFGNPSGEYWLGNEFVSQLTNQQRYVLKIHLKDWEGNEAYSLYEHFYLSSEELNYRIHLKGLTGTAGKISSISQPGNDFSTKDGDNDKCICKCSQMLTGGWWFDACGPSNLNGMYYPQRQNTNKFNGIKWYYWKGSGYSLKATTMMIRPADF


How the values were obtained:
[1] = molecular target: T1, human angiopoietin-2 protein; assay: competitive ELISA, coated Ang-2, 0.25 nM hTie-2-Fc; T form
Method: For competitive ELISA, human angiopoietin-2 protein and Tie-2-Fc (R&D Systems) were reconstituted without carrier protein. Mouse anti-human Tie-2 (Pharmingen) was used as the primary antibody and goat anti-mouse-IgG1-HRP (Pierce) was used as the secondary antibody. TMB substrate from Pierce was used.
High-binding half-well plates were coated with Ang-2 (100 ng/well) in 50 μl PBS and incubated at 4° C. overnight. Plates were washed three times with washing buffer (0.1% Tween 20, PBS, pH 7.4) and blocked with Superblock (Scytek), 100 μl/well at room temperature (“RT”) for 1 hour. After removing the blocking solution, 50 μl of an Ang-2 binding peptide compound (1 uM and 5× serial dilution) in the presence of 0.25 nM hTie-2-Fc using Superblock as diluent was added and incubated at RT for 2 hours. Plates were washed 3 times with washing buffer. Then, 50 ul of 0.1 ug/ml mouse anti-human Tie-2 diluted in Superblock added and incubated at RT for 1 hour. Following incubation, 50 ul of 1:5,000 dilution of goat anti-mouse IgG-HRP in Superblock was then added and incubated at RT for one hour. After washing 3 times, 50 μl (25 μl TMB+25 μl H₂O₂) was added, and incubated for 3-5 minutes. Color development was monitored and stopped with 25 μl of 2 M H₂SO₄. OD450 nm with a correction wavelength of 540 nm was measured.

[2] = molecular target: T1, human angiopoietin-2 protein; assay: competition ELISA, coated Ang-2, competitor compound 43-0P-h38c2 10 ng/mL; T form
Method: Recombinant human Ang-2 was coated on microtiter plates at 0.5 μg/mL in 100 μL , overnight at 2-8° C. Plates were washed between all steps and all subsequent incubations occurred at room temperature. Plates were blocked with 250 μL per well of SuperBlock for 1-3 hours. Test compounds were pre-mixed with compound 43 linked to linker (as shown in FIG. 3) and h38c2 AT 10 ng/mL. Peptide mixtures in 100 μL were then added at the listed final concentrations, then plates sealed, and incubated for 1-2 hours. Bound compounds 43 was detected with 100 uL of a 1:20,000 dilution of HRP-labeled anti-human IgG reagent for solution.

Binder	IC50 [1] [nM]	IC50 [2] [nM]
QXYQPLDELDXTLYDQFMLQQG (N-term acyl cap; C-term NH2 cap; AcK at 2; Dab at 11 carrying the 0P linker) [Compound 54 (T): targeting peptide plus 0P linker]	292	
QNYQPLDELDXTLYDQFMLQQG (not fully specified; N-term acyl cap; C-term NH2 cap; 0P linker on K11) [Compound 28 (T): targeting peptide plus 0P linker]	175	
QXYQPLDELDXTXYDQFMLQQG (not fully specified; N-term acyl cap; C-term NH2 cap; AcK at 2; 0P linker on K11; Nva at 13) [Compound 41 (T): targeting peptide plus 0P linker]	1340	
QXYQPLDEXDXTLYDQFMLQQG (N-term ac; C-term am; AcK at 2; AcK at 9; 0P linker on K11) [Compound 43(a) (T): targeting peptide plus 0P linker]		139
QXYQPLDELDXTLYDQFMLQQG (N-term acyl cap; C-term NH2 cap; (ClBnCarbamate)K at 2; 0P linker on K11, only one IC50 printed, standing in column T) [Compound 53 (T): targeting peptide plus 0P linker]	147	
Ac-QK(Ac)YQPLDEK(Ac)DK(0P linker)TLYDQFMLQQ-NH2 (reading uncertain, C-terminal truncation of 43(a) by 1 residue) [Compound 83 (T): targeting peptide plus 0P linker]		111
QXYQPLDELDXTLYDQFMLQQG (not fully specified; N-term amido 2-PEG cap; C-term NH2 cap; AcK at 2; 0P linker on K11) [Compound 52 (T): targeting peptide plus 0P linker]	134	
QXYQPLDELDXTLYDQFMLQQG (N-term acyl cap; C-term NH2 cap; AcK at 2; Dap at 11 carrying the 0P linker) [Compound 55 (T): targeting peptide plus 0P linker]	598	
QXYQPLDELDXTLYDQFMLQQG (not fully specified; N-term acyl cap; C-term NH2 cap; AcK at 2; 4P linker on K11) [Compound 24 (T): targeting peptide plus 4P linker]	207	
QXYQPLDEIDXTLYDQFMLQQG (not fully specified; N-term acyl cap; C-term NH2 cap; AcK at 2; 0P linker on K11) [Compound 37 (T): targeting peptide plus 0P linker]	1270	
QXYQPLDELDXTIYDQFMLQQG (not fully specified; N-term acyl cap; C-term NH2 cap; AcK at 2; 0P linker on K11) [Compound 36 (T): targeting peptide plus 0P linker]	2410	
Ac-QK(Ac)YQPLDEK(Ac)DK(0P linker)TLYDQFM-NH2 (reading uncertain, C-terminal truncation of 43(a) by 4 residues) [Compound 86 (T): targeting peptide plus 0P linker]		847
QXYQXLDELDXTLYDQFMLQQG (not fully specified; N-term acyl cap; C-term NH2 cap; AcK at 2; HP at 5; 0P linker on K11) [Compound 35 (T): targeting peptide plus 0P linker]	121	
QXYQXLDELDXTLYDQFMLQQG (not fully specified; N-term acyl cap; C-term NH2 cap; AcK at 2; DHP at 5 (printed D(HP)); 0P linker on K11) [Compound 34 (T): targeting peptide plus 0P linker]	224	
acyl-QK(Ac)YQPLDEK(Ac)DK(0P linker)TL[Phe(4-COOH)]DQFMLQQG-NH2 (reading uncertain; also: printed as Q(AcK)Y QPL DE(AcK) DK(0P)T L(CF)D QFM LQQ G) [Compound 62 (T): targeting peptide plus 0P linker]	499	
Ac-QK(Ac)YQPLDEK(Ac)DK(0P linker)TLYDQFMLQ-NH2 (reading uncertain, C-terminal truncation of 43(a) by 2 residues) [Compound 84 (T): targeting peptide plus 0P linker]		190
Ac-QK(Ac)YQPLDEK(Ac)DK(0P linker)TLYDQFML-NH2 (reading uncertain, C-terminal truncation of 43(a) by 3 residues) [Compound 85 (T): targeting peptide plus 0P linker]		444
QXYQPLDELDXTXYDQFMLQQG (not fully specified; N-term acyl cap; C-term NH2 cap; AcK at 2; 0P linker on K11; HL at 13) [Compound 42 (T): targeting peptide plus 0P linker]	1340	
QXYQPLDEXDXTLYDQFMLQQG (not fully specified; N-term acyl cap; C-term NH2 cap; AcK at 2; 0P linker on K9; AcK at 11) [Compound 30 (T): targeting peptide plus 0P linker]	279	
QK(Ac)YQPLDEK(0P linker)DETLYDQFMLQQG (not fully specified (N-terminus, C-terminus); printed as Q(AcK)Y QPL DEK(0P) DET LYD QFM LQQ G; reading uncertain) [Compound 33 (T): targeting peptide plus 0P linker]	370	
QNYQPLDELDXTLYDQFMLQQG (not fully specified; N-term acyl cap; C-term NH2 cap; 4P linker on K11) [Compound 25 (T): targeting peptide plus 4P linker]	300	
QRYQPLDELDXTLYDQFMLQQG (not fully specified; N-term acyl cap; C-term NH2 cap; 0P linker on K11) [Compound 59 (T): targeting peptide plus 0P linker]	177	
QHYQPLDELDXTLYDQFMLQQG (not fully specified; N-term acyl cap; C-term NH2 cap; 0P linker on K11) [Compound 60 (T): targeting peptide plus 0P linker]	214	
QXYQPLDELDXTXYDQFMLQQG (not fully specified; N-term acyl cap; C-term NH2 cap; AcK at 2; 0P linker on K11; HF at 13) [Compound 39 (T): targeting peptide plus 0P linker]	4890	

Results, then the binder that gave them:

IC50 [1] [nM]	IC50 [2] [nM]	Binder
82.4		acyl-QK(Ac)YQPLDEK(Ac)DK(0P linker)TL[Phe(4-NO2)]DQFMLQQG-NH2 (reading uncertain; also: printed as Q(AcK)Y QPL DE(AcK) DK(0P)T L(NO2F)D QFM LQQ G) [Compound 48 (T): targeting peptide plus 0P linker]
83.9		QXYQPLDELDXTLYDQFMLQQG (not fully specified; N-term acyl cap; C-term NH2 cap; NicK (nicotinyl lysine) at 2; 0P linker on K11, only one IC50 printed, standing in column T) [Compound 61 (T): targeting peptide plus 0P linker]
82.7		acyl-QK(Ac)YQ[Hyp]LDE[ThA]DK(0P linker)TL[Bpa]DQFMLQQG-NH2 (reading uncertain) [Compound 46 (T): targeting peptide plus 0P linker]
110		QNYQPLDELDK(0P linker)TL[Phe(4-COOH)]DQFMLQQG (not fully specified (N-terminus, C-terminus); printed as QNY QPL DEL DK(0P)T L(CF)D QFM LQQ G; reading uncertain) [Compound 57 (T): targeting peptide plus 0P linker]
36.9		QXYQPLDELDXTLFDQFMLQQG (not fully specified; N-term acyl cap; C-term NH2 cap; AcK at 2; 0P linker on K11) [Compound 44 (T): targeting peptide plus 0P linker]
43.3		acyl-QK(Ac)YQ[Hyp]LDE[ThA]DK(0P linker)TL[Phe(4-COOH)]DQFMLQQG-NH2 (reading uncertain; also: printed as Q(AcK)Y Q(HP)L DE(ThA) DK(0P)T L(CO2H)FD QFM LQQ G) [Compound 47 (T): targeting peptide plus 0P linker]
92.2		acyl-QNYQPLDELDK(0P linker)TL[Bpa]DQFMLQQG-NH2 (reading uncertain; also: printed as QNY QPL DEL DK(0P)T L(BPA)D QFM LQQ G) [Compound 56 (T): targeting peptide plus 0P linker]
33		QXYQPLDELDXTLYDQFMLQQG (N-term DFB (difluorobenzoyl) cap; C-term NH2 cap; AcK at 2; 0P linker on K11) [Compound 50 (T): targeting peptide plus 0P linker]
32.3		XKYQPLDELDKTLYDQFMLQQG (not fully specified; 0P linker at the N-terminus (no acyl cap); C-term NH2 cap) [Compound 26 (T): targeting peptide plus 0P linker]
28.4		QXYQPLDELDXTLYDQFMLQQG (N-term DCB (dichlorobenzoyl) cap; C-term NH2 cap; AcK at 2; 0P linker on K11) [Compound 49 (T): targeting peptide plus 0P linker]
24.7		QK(Ac)YQ[Hyp]LDE[ThA]DK(0P linker)TL[Phe(4-NO2)]DQFMLQQG (not fully specified (N-terminus, C-terminus); printed as Q(AcK)Y Q(HP)L DE(ThA) DK(0P)T L(NO2F)D QFM LQQ G; reading uncertain) [Compound 45 (T): targeting peptide plus 0P linker]
83.3		QXYQPLDELDXTLYDQFMLQQG (not fully specified; N-term acyl cap; C-term NH2 cap; AcK at 2; 0P linker on K11) [Compound 29 (T): targeting peptide plus 0P linker]
14.3		QXYQPLDELDXTLYDQFMLQQG (not fully specified; N-term PyC (pyridinyl carboxylate) cap; C-term NH2 cap; AcK at 2; 0P linker on K11) [Compound 51 (T): targeting peptide plus 0P linker]
29		QKYQPLDELDXTLYDQFMLQQG (not fully specified; N-term acyl cap; C-term NH2 cap; 0P linker on K11) [Compound 27 (T): targeting peptide plus 0P linker]
